Patent US20220380473A1, “ANTI-GAL3 ANTIBODIES AND USES THEREOF” (TrueBinding, Inc., priority 2019, published 2022)

Legend:
human Gal3-His = human Gal3-His (Homo sapiens, UniProt P17931); assay: Antibody binning by biolayer interferometry (Gator); format: binding; conditions: antibody competition
[1] = system: MC38 murine colon adenocarcinoma cells; assay: Primary mouse MC38 colon tumor model; format: in vivo
Protocol: On the day of tumor implantation, MC38 murine colon adenocarcinoma cells were collected, washed and resuspended in PBS. Mice were anesthetized by inhalation anesthetic (3 to 5% Isoflurane in medical grade air). 5×10^5 cells in 0.1 mL PBS were subcutaneously injected into the right flank of mice by using a syringe with a 25-ga needle. On day 7, the tumor volumes were measured and mice were randomly assigned into two groups (n=8). […] The tumor volumes and body weights were monitored twice per week. The animals were humanely sacrificed when tumor volume reached 3000 mm^3. Results were expressed as mean±SEM.

B16F10 cells = assay: Immune profiling in B16F10 lung metastasis mice; format: in vivo, mouse; conditions: 10 mg/kg I.P., day 8, vs isotype control
Protocol: Mice were implanted with 1 million B16F10 cells I.V. Mice were then treated with IMT001 or isotype control (10 mg/kg I.P.) on Day 0, 1, 3 and 7 and sacrificed on day 8 for lung immune cell isolation and phenotyping. Cells were isolated from the lungs, and then stained with fluorescently labeled antibodies against lymphocyte markers CD3, CD4, CD8, CD19, DX5 and analyzed by flow cytometry.

hGal3 peptides = assay: ELISA of antibody binding to hGal3 peptides (Example 14); design: species or system human; conditions: 0.1 ug/ml antibody
Protocol: A library of 20 amino acid peptides each representing a certain regions of hGal3 (SEQ ID NO: 1) was produced. At least 2 ug/ml of the produced hGal3 peptide: peptide 1 (SEQ ID NO: 3), 5 (SEQ ID NO: 7), 6 (SEQ ID NO: 8), 8 (SEQ ID NO: 10), or 23 (SEQ ID NO: 25) in 50 ul of PBS was added to the wells of a 96-well ELISA plate (Thermo Fisher, 44-2404-21). As a positive control, 0.1 ug/ml of full-length human Galectin-3 protein (Acro Biosystems, GA3-H5129) in 100 ul of PBS was added to the wells of the ELISA plate. After incubating the plate at 4° C. overnight, the plate was washed three times with 300 ul of PBST per well. The plate was then blocked for an hour with 200 ul of 2% BSA in PBST per well at room temperature with gentle rocking. Thereafter, the 2% BSA in PBST was removed and 100 ul of 0.1 ug/ml of antibody in 2% BSA in PBST was added to the wells (FIG. 17A-B). As for negative control group, the antibodies were applied without the hGal3 peptides or the hGal3 protein.
The plate was incubated for an hour at room temperature with gentle rocking and then washed three times with 300 μl of PBST per well. […] The reaction was stopped with 50 ul of 1M HCl (VWR) per well and the plate was read using a plate reader (Molecular Devices) at absorbance of 450 nm.

[2] = molecular target: T1, interaction between Gal3 and TIM-3 (Mus musculus, UniProt P16110); assay: Blocking ELISA, mouse Gal3 coated plate and mouse TIM-3 Fc; format: binding; conditions: mGal3 coated plate, mouse TIM-3 Fc
T1 construct: purchased BioLegend (mouse Gal3); R&D systems (mouse TIM-3 Fc)
Protocol: ELISA assays were also performed to test the interaction between Gal3 and TIM-3. 96 well ELISA plates (ThermoFisher Scientific) were coated with mouse Gal3 protein (BioLegend, San Diego, Calif.) in PBS or human Gal9 protein (R&D systems) in PBS or phosphatidylserine (PS) (Sigma) in ethanol and incubated at 4° C. for overnight. The plate was washed three times with TBST and then blocked with PBS buffer containing 2% BSA at room temperature for 1 hour. In FIG. 5A, different anti Gal3 antibodies, i.e. mGal3 polyclonal antibody (R&D systems), mAb IMT001 (also described in WO 2019/023247, hereby expressly incorporated by reference in its entirety), mAb M3/38 (Thermofisher Scientific) (FIG. 5A), were added to well that has been coated with Gal3. The antibodies were incubated for 10 minutes and mouse TIM-3 Fc were then added to the plates and incubated for an additional one-hour incubation. Plates were then washed for three times and followed by incubation with anti-human-IgG-HRP (Jackson ImmunoResearch) for 1 h at room temperature. The color was developed with TMB subtract (GeneTex, Irvine, Calif.) after three time washes with TBST and the reaction was terminated with 1N HCl. The optical density (OD) was read at 450 nm. The results were expressed as the average OD of duplicates±SD. […]

T1 sequence (P16110 2-264 limits assumed): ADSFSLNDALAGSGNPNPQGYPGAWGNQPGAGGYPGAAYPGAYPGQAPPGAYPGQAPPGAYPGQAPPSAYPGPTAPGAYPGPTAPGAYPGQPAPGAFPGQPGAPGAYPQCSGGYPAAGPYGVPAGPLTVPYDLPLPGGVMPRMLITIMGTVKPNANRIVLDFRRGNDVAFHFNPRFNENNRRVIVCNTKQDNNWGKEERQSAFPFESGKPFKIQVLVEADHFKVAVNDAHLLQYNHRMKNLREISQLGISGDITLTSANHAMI
Chain of human Gal3-His (P17931 whole entry): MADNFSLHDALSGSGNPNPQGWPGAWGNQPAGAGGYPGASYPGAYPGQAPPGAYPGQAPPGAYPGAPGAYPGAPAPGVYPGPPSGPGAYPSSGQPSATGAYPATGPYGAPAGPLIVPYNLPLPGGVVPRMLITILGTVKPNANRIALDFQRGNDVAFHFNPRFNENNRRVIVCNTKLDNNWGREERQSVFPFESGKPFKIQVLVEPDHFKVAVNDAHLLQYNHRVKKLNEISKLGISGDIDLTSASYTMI

B1: IMT001: anti-Gal3 monoclonal antibody (Immutics); printed as mIMT001 (IMT001), murine (antibody, V domains shown)
VH: QIQLVQSGPELKKPGETVKISCKASGYTFTNYGMNWVKQAPGKGLKWMGWINTNTGEPTYVEEFKGRFAFSLETSASTAYLQINNLKNEDTATYFCAPYDNFFAYWGQGTLVTVSA
VL: DIVITQDELSNPVTSGESVSISCRSSKSLLYKDGKTYLNWFLQRPGQSPQLLIYLMSTHASGVSDRFSGSGSGTDFTLEISRVKAEDVGVYYCQQLVDYPLTFGAGTKLELK
Human Gal3-His
  Bin: 1
[1]; 10 mg/Kg i.p., day 24, vs isotype control
  reduction of tumor burden: about 33%
[1]; vs isotype control
  effect on tumor size: much reduced tumor size
B16F10 cells
  number of immune effector cells in lungs (CD3, CD4, CD8, CD19, DX5): increased the number of various immune effector cell
hGal3 peptides
  hGal3 peptides bound: 5 (SEQ ID NO: 7), 6 (SEQ ID NO: 8), and 8 (SEQ ID NO: 10)
[2]
  block of Gal3 binding to TIM-3: blocked
